Experimental data: paper PMC11969024 (2025)

B1: peptide HD2 (from tick evasin EVA4) / CCL18 (biotinylated, synthetic) (parent complex)
chain 1: EEDDYTAYAPLTCYFT
chain 2: AQVGTNKELCCLVYTSWQIPQKFIVDYSETSPQCPKPGVILLTKRGRQICADPNKKWVQKYISDLKLNA
B2: peptide HD2 (from tick evasin EVA4) / CCL8 (biotinylated, synthetic) (parent complex)
chain 1: EEDDYTAYAPLTCYFT
chain 2: QPDSVSIPITCCFNVINRKIPIQRLESYTRITNIQCPKEAVIFKTKRGKEVCADPKERWVRDSMKHLDQIFQNLKP

Variants of: B1

First: chain 1 A7G
Second: chain 1 A7F
The enrichment of the first is higher: -0.215 log2 (difference from the parental peptide) for the first, -2.38 log2 (difference from the parental peptide) for the second.

Going from chain 1 E2L to chain 1 E2P, the enrichment falls from -1.93 log2 (difference from the parental peptide) to -2.55 log2 (difference from the parental peptide).

Compared with chain 1 E2C, chain 1 E1H is higher in enrichment: -10.2 log2 (difference from the parental peptide) for the first, -1.83 log2 (difference from the parental peptide) for the second.

Compared with chain 1 E1V, chain 1 E1G is higher in enrichment: -1.49 log2 (difference from the parental peptide) for the first, -0.506 log2 (difference from the parental peptide) for the second.

Going from chain 1 E1D to chain 1 E1T, the enrichment falls from 1.97 log2 (difference from the parental peptide) to -0.938 log2 (difference from the parental peptide).

Compared with chain 1 E1Q, chain 1 E1F is lower in enrichment: -1.1 log2 (difference from the parental peptide) for the first, -2.72 log2 (difference from the parental peptide) for the second.

First: chain 1 D3Y
Second: chain 1 D3N
The enrichment of the first is higher: -1.47 log2 (difference from the parental peptide) for the first, -1.71 log2 (difference from the parental peptide) for the second.

First: chain 1 D3V
Second: chain 1 D3P
The enrichment of the first is lower: -2.61 log2 (difference from the parental peptide) for the first, 0.322 log2 (difference from the parental peptide) for the second.

Going from chain 1 D3Q to chain 1 D3H, the enrichment rises from -2.18 log2 (difference from the parental peptide) to -1.21 log2 (difference from the parental peptide).

Going from chain 1 T16M to chain 1 T16I, the enrichment falls from 0.26 log2 (difference from the parental peptide) to -0.207 log2 (difference from the parental peptide).

First: chain 1 T12G
Second: chain 1 T12D
The enrichment of the first is lower: -8.91 log2 (difference from the parental peptide) for the first, -4.6 log2 (difference from the parental peptide) for the second.

Compared with chain 1 T12H, chain 1 T12Q is higher in enrichment: -0.953 log2 (difference from the parental peptide) for the first, -0.825 log2 (difference from the parental peptide) for the second.

First: chain 1 Y14L
Second: chain 1 Y14I
The enrichment of the first is lower: -2.62 log2 (difference from the parental peptide) for the first, -0.627 log2 (difference from the parental peptide) for the second.

First: chain 1 Y14A
Second: chain 1 Y14R
The enrichment of the first is higher: -5.59 log2 (difference from the parental peptide) for the first, -6.83 log2 (difference from the parental peptide) for the second.

Compared with chain 1 L11G, chain 1 L11P is higher in enrichment: -7.45 log2 (difference from the parental peptide) for the first, -3.17 log2 (difference from the parental peptide) for the second.

Going from chain 1 L11D to chain 1 A9W, the enrichment rises from -8.28 log2 (difference from the parental peptide) to -3.66 log2 (difference from the parental peptide).

First: chain 1 A9R
Second: chain 1 A9G
The enrichment of the first is higher: -1.3 log2 (difference from the parental peptide) for the first, -3.53 log2 (difference from the parental peptide) for the second.

Going from chain 1 A9V to chain 1 D4L, the enrichment rises from -8.05 log2 (difference from the parental peptide) to -2.06 log2 (difference from the parental peptide).

Compared with chain 1 D4T, chain 1 D4H is higher in enrichment: -3.75 log2 (difference from the parental peptide) for the first, -3.06 log2 (difference from the parental peptide) for the second.

First: chain 1 D4M
Second: chain 1 F15I
The enrichment of the first is lower: -1.48 log2 (difference from the parental peptide) for the first, 0.366 log2 (difference from the parental peptide) for the second.

First: chain 1 F15R
Second: chain 1 F15Y
The enrichment of the first is lower: -0.00139 log2 (difference from the parental peptide) for the first, 1.67 log2 (difference from the parental peptide) for the second.

Going from chain 1 Y8A to chain 1 Y8M, the enrichment falls from 0.303 log2 (difference from the parental peptide) to -6.37 log2 (difference from the parental peptide).

First: chain 1 Y8C
Second: chain 1 Y8I
The enrichment of the first is lower: -8.88 log2 (difference from the parental peptide) for the first, -7.58 log2 (difference from the parental peptide) for the second.

Compared with chain 1 Y8T, chain 1 Y5C is lower in enrichment: -4.68 log2 (difference from the parental peptide) for the first, -5.9 log2 (difference from the parental peptide) for the second.

First: chain 1 Y5P
Second: chain 1 Y5H
The enrichment of the first is higher: -4.12 log2 (difference from the parental peptide) for the first, -4.35 log2 (difference from the parental peptide) for the second.

Compared with chain 1 Y5F, chain 1 Y5T is lower in enrichment: -0.587 log2 (difference from the parental peptide) for the first, -3.47 log2 (difference from the parental peptide) for the second.

First: chain 1 Y5S
Second: chain 1 Y5G
The enrichment of the first is higher: -3.37 log2 (difference from the parental peptide) for the first, -3.5 log2 (difference from the parental peptide) for the second.

Compared with chain 1 C13L, chain 1 C13P is higher in enrichment: -7.42 log2 (difference from the parental peptide) for the first, -7.21 log2 (difference from the parental peptide) for the second.

Compared with chain 1 C13Y, chain 1 C13V is lower in enrichment: -5.14 log2 (difference from the parental peptide) for the first, -6.58 log2 (difference from the parental peptide) for the second.

Going from chain 1 T6D to chain 1 T6L, the enrichment falls from 2.62 log2 (difference from the parental peptide) to -1.51 log2 (difference from the parental peptide).

chain 1 T6Q was tested, and the enrichment was 1.41 log2 (difference from the parental peptide).

Variants of: B2

Going from chain 1 D4I to chain 1 D4Q, the enrichment rises from -3.36 log2 (difference from the parental peptide) to -1.83 log2 (difference from the parental peptide).

Compared with chain 1 D4W, chain 1 D4Y is higher in enrichment: -3.2 log2 (difference from the parental peptide) for the first, -2.68 log2 (difference from the parental peptide) for the second.

Going from chain 1 Y8T to chain 1 Y8C, the enrichment falls from -8 log2 (difference from the parental peptide) to -9.2 log2 (difference from the parental peptide).

Compared with chain 1 Y8R, chain 1 Y8L is lower in enrichment: -6.7 log2 (difference from the parental peptide) for the first, -7.29 log2 (difference from the parental peptide) for the second.

Going from chain 1 Y8M to chain 1 E2N, the enrichment rises from -6.01 log2 (difference from the parental peptide) to -1.75 log2 (difference from the parental peptide).

First: chain 1 E2Q
Second: chain 1 E2R
The enrichment of the first is higher: -2.83 log2 (difference from the parental peptide) for the first, -3.19 log2 (difference from the parental peptide) for the second.

Going from chain 1 P10T to chain 1 P10N, the enrichment falls from -7.38 log2 (difference from the parental peptide) to -7.54 log2 (difference from the parental peptide).

Going from chain 1 P10E to chain 1 P10W, the enrichment falls from -7.42 log2 (difference from the parental peptide) to -8.37 log2 (difference from the parental peptide).

Going from chain 1 A9M to chain 1 A9Y, the enrichment falls from -1.3 log2 (difference from the parental peptide) to -4.23 log2 (difference from the parental peptide).

First: chain 1 A9K
Second: chain 1 A9G
The enrichment of the first is lower: -1.29 log2 (difference from the parental peptide) for the first, -0.437 log2 (difference from the parental peptide) for the second.

Compared with chain 1 A9Q, chain 1 A9T is lower in enrichment: 0.272 log2 (difference from the parental peptide) for the first, -0.868 log2 (difference from the parental peptide) for the second.

Compared with chain 1 A9S, chain 1 A9V is lower in enrichment: 0.31 log2 (difference from the parental peptide) for the first, -3.26 log2 (difference from the parental peptide) for the second.

Going from chain 1 F15D to chain 1 F15G, the enrichment falls from 0.871 log2 (difference from the parental peptide) to 0.793 log2 (difference from the parental peptide).

Going from chain 1 F15K to chain 1 F15R, the enrichment falls from 2.15 log2 (difference from the parental peptide) to 1.7 log2 (difference from the parental peptide).

First: chain 1 F15T
Second: chain 1 F15A
The enrichment of the first is higher: 2.65 log2 (difference from the parental peptide) for the first, 2.51 log2 (difference from the parental peptide) for the second.

Compared with chain 1 F15M, chain 1 F15I is lower in enrichment: 2.61 log2 (difference from the parental peptide) for the first, 1.54 log2 (difference from the parental peptide) for the second.

Going from chain 1 F15E to chain 1 T16A, the enrichment falls from 1.9 log2 (difference from the parental peptide) to 1.43 log2 (difference from the parental peptide).

Going from chain 1 T16H to chain 1 T16I, the enrichment rises from 0.233 log2 (difference from the parental peptide) to 0.743 log2 (difference from the parental peptide).

First: chain 1 T16P
Second: chain 1 T12R
The enrichment of the first is higher: 1.42 log2 (difference from the parental peptide) for the first, 0.0146 log2 (difference from the parental peptide) for the second.

First: chain 1 T12C
Second: chain 1 T12W
The enrichment of the first is lower: -5.83 log2 (difference from the parental peptide) for the first, -1.55 log2 (difference from the parental peptide) for the second.

First: chain 1 T12K
Second: chain 1 T12N
The enrichment of the first is lower: -0.15 log2 (difference from the parental peptide) for the first, 0.576 log2 (difference from the parental peptide) for the second.

First: chain 1 T12S
Second: chain 1 T12Y
The enrichment of the first is higher: 0.405 log2 (difference from the parental peptide) for the first, -0.212 log2 (difference from the parental peptide) for the second.

Compared with chain 1 T6R, chain 1 T6E is higher in enrichment: -0.801 log2 (difference from the parental peptide) for the first, 2.76 log2 (difference from the parental peptide) for the second.

First: chain 1 T6D
Second: chain 1 T6K
The enrichment of the first is higher: 2.7 log2 (difference from the parental peptide) for the first, -1.83 log2 (difference from the parental peptide) for the second.

Going from chain 1 T6W to chain 1 T6H, the enrichment falls from -0.802 log2 (difference from the parental peptide) to -0.816 log2 (difference from the parental peptide).

Going from chain 1 Y14L to chain 1 Y14W, the enrichment falls from 0.559 log2 (difference from the parental peptide) to 0.518 log2 (difference from the parental peptide).

Going from chain 1 Y14P to chain 1 Y14A, the enrichment rises from -2.37 log2 (difference from the parental peptide) to -0.507 log2 (difference from the parental peptide).

Going from chain 1 Y14C to chain 1 Y14N, the enrichment rises from -2.25 log2 (difference from the parental peptide) to 0.255 log2 (difference from the parental peptide).

Going from chain 1 Y14M to chain 1 Y14I, the enrichment rises from 1.03 log2 (difference from the parental peptide) to 1.29 log2 (difference from the parental peptide).

Compared with chain 1 L11C, chain 1 L11K is higher in enrichment: 1.32 log2 (difference from the parental peptide) for the first, 1.95 log2 (difference from the parental peptide) for the second.

First: chain 1 E1S
Second: chain 1 E1T
The enrichment of the first is higher: -0.455 log2 (difference from the parental peptide) for the first, -1.11 log2 (difference from the parental peptide) for the second.

Compared with chain 1 E1W, chain 1 E1H is higher in enrichment: -2.25 log2 (difference from the parental peptide) for the first, -1.32 log2 (difference from the parental peptide) for the second.

Compared with chain 1 E1I, chain 1 E1M is higher in enrichment: -1.02 log2 (difference from the parental peptide) for the first, -0.394 log2 (difference from the parental peptide) for the second.

Going from chain 1 E1N to chain 1 D3E, the enrichment rises from -0.349 log2 (difference from the parental peptide) to 0.904 log2 (difference from the parental peptide).

Going from chain 1 D3S to chain 1 Y5I, the enrichment falls from -2.23 log2 (difference from the parental peptide) to -2.45 log2 (difference from the parental peptide).

First: chain 1 Y5F
Second: chain 1 Y5D
The enrichment of the first is higher: -0.0383 log2 (difference from the parental peptide) for the first, -3.76 log2 (difference from the parental peptide) for the second.

First: chain 1 Y5E
Second: chain 1 Y5W
The enrichment of the first is lower: -1.42 log2 (difference from the parental peptide) for the first, -0.0149 log2 (difference from the parental peptide) for the second.

Compared with chain 1 Y5V, chain 1 Y5P is lower in enrichment: -3.14 log2 (difference from the parental peptide) for the first, -6.25 log2 (difference from the parental peptide) for the second.

First: chain 1 Y5T
Second: chain 1 Y5N
The enrichment of the first is higher: -4.38 log2 (difference from the parental peptide) for the first, -4.9 log2 (difference from the parental peptide) for the second.

Compared with chain 1 C13F, chain 1 C13A is lower in enrichment: -0.473 log2 (difference from the parental peptide) for the first, -2.32 log2 (difference from the parental peptide) for the second.

First: chain 1 C13L
Second: chain 1 C13G
The enrichment of the first is higher: -1.06 log2 (difference from the parental peptide) for the first, -1.56 log2 (difference from the parental peptide) for the second.

First: chain 1 C13I
Second: chain 1 A7F
The enrichment of the first is higher: -0.427 log2 (difference from the parental peptide) for the first, -0.605 log2 (difference from the parental peptide) for the second.

Going from chain 1 A7L to chain 1 A7R, the enrichment falls from 0.505 log2 (difference from the parental peptide) to -0.287 log2 (difference from the parental peptide).

First: chain 1 A7H
Second: chain 1 A7G
The enrichment of the first is lower: -0.321 log2 (difference from the parental peptide) for the first, 0.697 log2 (difference from the parental peptide) for the second.

chain 1 A7N was tested, and the enrichment was 1.02 log2 (difference from the parental peptide).
